Source: patent US7244563B2, “Genes for plant fatty acid modifying enzymes associated with conjugated double bond formation” (E. I. du Pont de Nemours and Company, priority 2002, dated 2007)

Columns and labels:
soybean seeds = assay: Fatty acid composition of seeds of regenerated transgenic soybean plants; assay type: in vivo; conditions: for Eleostearic / Other / 16:0 / 18:0 / 18:1 / 18:2 / 18:3 / α-Parinaric: single soybean seed; for Eleostearic: includes cis-trans isomers of α-eleostearic acid (<1.5 wt %); for Other: primarily 20:0, 20:1, 22:0, and 22:1; for 16:0 / 18:0 / 18:1 / 18:2 / 18:3 / α-Parinaric: % of total oil weight
Source text: To examine the ability of the Momordica fatty acid modifying enzyme associated with conjugated double bond synthesis to function in seeds of crop plants, transgenic soybean embryos expressing this enzyme were regenerated into plants. The fatty acid compositions of segregating seeds from these plants were examined by GC and GC-MS as described in Example 4

[1] = system: Saccharomyces cerevisiae INVSc1 cells; assay: Expression in Saccharomyces cerevisiae, accumulation of fatty acids with conjugated double bonds; assay type: cell-based; conditions: 4 days at 16°
Description: The Impatiens balsamina clone ImpH8Fad2 was partially digested with the restriction enzymes EcoRI and XhoI. A resulting 1.5 kb DNA fragment containing the entire cDNA insert was purified by agarose gel electrophoresis. The cDNA insert was obtained from agarose gel by digestion with GELase™ (Epicentre Technologies) according to the manufacturer's instructions, ethanol precipitated, dried and resuspended in 20 μL of water. The purified cDNA was ligated into the EcoRI and XhoI sites of the Saccharomyces cerevisiae expression vector pYES2 (Invitrogen) using T4 DNA ligase (New England Biolabs). The resulting plasmid pYes2/ImpH8Fad2 was introduced into Saccharomyces cerevisiae INVSc1 (=Invitrogen)cells by lithium acetate-mediated transformation [Sherman F, Fink G R, Hicks J B, Methods in Yeast Genetics: A Laboratory Course Manual, Cold Spring Harbor Lab. Press, Plainview, N.Y. (1987)]. Transformed cells were selected by their ability to grow in the absence of uracil. Individual colonies of transformed cells were then grown for 2 days at 30° in growth media lacking uracil [0.17% (w/v) yeast nitrogen base without amino acids (Difco), 0.5% (w/v) ammonium sulfate, and 0.18% SC-URA (Bio101)] supplemented with glycerol and glucose to a final concentration of 5% (v/v) and 0.5% (w/v), respectively. Cells were then washed twice in the growth media described above that was supplemented instead with galactose to a final concentration of 2% (w/v). The washed cells were then diluted to O.D.600≈0.2 in the galactose-containing growth media that also contained Tergitol NP-40 (Sigma) at a concentration of 0.2% (w/v). Aliquots of these cells were grown without exogenous fatty acids or with the addition of either linoleic acid (18:2Δ^9cis,12cis) or α-linolenic acid (18:3Δ^9cis,12cis,15cis) at a final concentration of 2 mM. Following 4 days of growth at 16°, the S. cerevisiae cells were harvested and examined for the accumulation of fatty acids containing conjugated double bonds as described in Example 4. In cells grown in media containing linoleic acid, α-eleostearic acid was detected in amounts of up to 0.6% (w/w) of the total fatty acids.

[2] = media containing linoleic acid 2 mM
[3] = media containing α-linolenic acid 2 mM

B1: MomFad2: Momordica charantia fatty acid modifying enzyme associated with conjugated double bond formation, SEQ ID NO:4, cDNA SEQ ID NO:3 (protein, listed as Momordica charantia)
chain: MGGRGAIGVLRNGGGPKKKMGPGQGLGPGERITHARPPFSISQIKKAIPPHCFQRSLRRSFSYLLSDIALVSAFYYVADTYFHRLPHPLLHYLAWPVYWFCQGAVLTGMWGIAHDCGHHAFSDYQLVDDVVGFLIHSLVFVPYFSFKISHRRHHSNTSSVDRDEVFVPKPKAKMPWYFKYLTNPPARVFIIFITLTLGWPMYLTFNISGRYYGRFTSHFDPNSPIFSPKERVLVHISNAGLVATGYLLYRIAMAKGVGWLIRLYGVPLIVLNACVVLITALQHTHPSFPYYDSTEWDWLRGNLVTVDRDYGPIMNRVFHHITDTHVVHHLFPSMPHYNGKEATVAAKRILGEYYQFDGTPIWKAAWREFRECVYVEPDEDDGATSGSSSKGVFWYHNKL
- Eleostearic (soybean seeds; Line 1): 13.9 Weight %
- Other (soybean seeds; Line 1): <2.0 Weight %
- Eleostearic (soybean seeds; Line 2): 13.4 Weight %
- Other (soybean seeds; Line 2): <2.2 Weight %
- Eleostearic (soybean seeds; Line 3): 11.6 Weight %
- Other (soybean seeds; Line 3): <1.5 Weight %
- 16:0 (soybean seeds; transgenic Line 1): 8.8 Weight %
- 18:0 (soybean seeds; transgenic Line 1): 3.6 Weight %
- 18:1 (soybean seeds; transgenic Line 1): 44.5 Weight %
- 18:2 (soybean seeds; transgenic Line 1): 25.7 Weight %
- 18:3 (soybean seeds; transgenic Line 1): 1.0 Weight %
- α-Parinaric (soybean seeds; transgenic Line 1): 0.5 Weight %
- 16:0 (soybean seeds; transgenic Line 2): 8.4 Weight %
- 18:0 (soybean seeds; transgenic Line 2): 3.5 Weight %
- 18:1 (soybean seeds; transgenic Line 2): 48.9 Weight %
- 18:2 (soybean seeds; transgenic Line 2): 22.3 Weight %
- 18:3 (soybean seeds; transgenic Line 2): 0.7 Weight %
- α-Parinaric (soybean seeds; transgenic Line 2): 0.4 Weight %
- 16:0 (soybean seeds; transgenic Line 3): 9.7 Weight %
- 18:0 (soybean seeds; transgenic Line 3): 3.8 Weight %
- 18:1 (soybean seeds; transgenic Line 3): 47.2 Weight %
- 18:2 (soybean seeds; transgenic Line 3): 24.7 Weight %
- 18:3 (soybean seeds; transgenic Line 3): 1.0 Weight %
- α-Parinaric (soybean seeds; transgenic Line 3): 0.5 Weight %
- α-eleostearic acid of the total fatty acids (soybean seeds; transgenic soybean seeds): more than 13%
- α-parinaric acid of the total fatty acids (soybean seeds; transgenic soybean seeds): approximately 0.5%
- oleic acid (18:1) content of the total fatty acids (soybean seeds; transgenic soybean seeds, about 18 wt % in wild-type): ~50 wt %
- linolenic acid (18:3) content of the total fatty acids (soybean seeds; transgenic soybean seeds, nearly 9 wt % in wild-type): about 1 wt %

B2: ImpFad2: Impatiens balsamina fatty acid modifying enzyme associated with conjugated double bond formation, SEQ ID NO:2, cDNA SEQ ID NO:1 (protein, listed as Impatiens balsamina)
chain: MGEVGPTNRTKTKLDKQQESENRVPHEPPPFTLSDLKKAIPPHCFERSLVKSFYHVIHDIIILSFFYYVAANYIPMLPQNLRYVAWPIYWAIQGCVQLGILVLGHECGHHAFSDYQWVDDMVGFVLHSSQLIPYFSWKHSHRRHHSNTASIERDEVYPPAYKNDLPWFAKYLRNPVGRFLMIFGALLFGWPSYLLFNANGRLYDRFASHYDPQSPIFNNRERLQVIASDVGLVFAYFVLYKIALAKGFVWLICVYGVPYVILNGLIVLITFLQHTHPNLPRYDLSEWDWLRGALSTVDRDYGMLNKVFHNVTDTHLVHHLFTTMPHYRAKEATEVIKPILGDYYKFDDTPFLKALWKDMGKCIYVESDVPGKNKGVYWYNNDI
- α-eleostearic acid of the total fatty acids [1, 2]: up to 0.6 % (w/w)
- α-parinaric acid detection [1, 2]: no α-parinaric acid was detected
- α-eleostearic acid detection [1, 3]: no α-eleostearic acid was detected
- α-parinaric acid of the total fatty acids [1, 3]: up to 0.9 % (w/w)
